# Reference: US12018068B2, “Anti-O1 antibodies and uses thereof” (priority 2016, dated 2024)
# Numbering of substitutions follows the chain as printed.
# B1: KPE33 H32+L2016(1EQ): further optimized variant of KPE33v2016, VH SEQ ID NO:61, VL SEQ ID NO:63 (antibody, V domains shown)
# VH: QVQLVESGGGLVQPGRSLRLSCAASGFIFDDYAIHWVRQAPGKGLEWVSGIAYKSGATNYAESVKGRFTISRDQSKNSLYLQMNSLRAEDTALYYCTRRRASGDNTFYYFDYWGQGTLVTVSS
# VL: QIVLTQSPATLSLSPGERATLSCRASQNVNTNLAWYQQKPGQAPRLLIYDASNRATGIPARFSGSGSGTDFTLTISSLEPEDFAVYYCQQTTNWRYTFGQGTKLEIK
# B2: KPE33 H33+L2016(1EQ): further optimized variant of KPE33v2016, VH SEQ ID NO:62, VL SEQ ID NO:63 (antibody, V domains shown)
# VH: B1 VH with N77K
# VL: B1 VL
# Legend:
# O1 LPS = assay: Octet binding affinity to O1 LPS; design: species or system Klebsiella pneumoniae; settings: average, from on-rate and off-rate, read-out: affinity constant (KD) to O1 LPS
# From the text: In order to reduce potential sequence liabilities for antibody development including potential immunogenicity due to anti-drug antibodies, an unpaired Cysteine in the light chain CDR3 of KPE33 was exchanged with Threonine (T), and somatic mutations in the frameworks 1, 2, and 4 of KPE33 were replaced with germ line residues (as summarized in FIG. 5). CDRs were maintained as wildtype, except for the C107T substitution described above. The optimized KPE33 was named KPE33v2016. […] This platform provides a powerful tool to measure the rate of biomolecular complex formation and complex stability in a more biologically meaningful setting. Briefly, Protein A coated sensors were coated with 2 μg/mL O1 LPS for 10 minutes before being dipped into solution containing 0.2 μg/mL anti-O1 LPS mAbs in Kinetics buffer (ForteBio, dilute 10× to 1× with PBS). Changes in the number of molecules bound to the biosensor caused a shift in the interference pattern that was recorded in real time. […] The affinity constant (KD) of KPE33 and KPE33v2016 to O1 LPS was calculated based on the on-rate and off-rate from Octet sensorgram.
# KPE33v2016 was further optimized, thereby creating two new variants—KPE33 H32+L2016(1EQ) and KPE33 H33+L2016(1EQ). Both of these variants contain a Methionine to Isoleucine mutation adjacent to CDRH1, a Tryptophan to Tyrosine mutation in CDRH2, an Aspartate to Glutamate mutation adjacent to CDRH2, Asparagine to Glutamine and Methionine to Leucine mutations in FRH3 and an Aspartate to Asparagine mutation in CDRH3. In addition, KPE33 H32+L2016(1EQ) had four FRH3 residues changed to the germ-line residues, whereas KPE33 H33+L2016(1EQ) only has three of the same FRH3 residues changed to the germ-line. Both of these variants contain the same light chain as KPE33v2016, but with a single Glutamate to Glutamine mutation in residue 1.
# [1] = tested on: K. pneumoniae carbapenem-resistant (CRE) strain Kp1131115 (O1); assay: acute lethal pneumonia model, survival; format: in vivo, Klebsiella pneumoniae; settings: C57BL/6 mice, antibody one hour post bacterial challenge, vs human IgG1 control (R347)
# Protocol: (§1) In an acute pneumonia model, C57BL/6 mice were inoculated intranasally with 1e4 to 1e8 CFU of the multi-drug resistant Klebsiella pneumoniae carbapenam resistant (CRE) clinical isolate strain KP1131115 (O1). Anti-K. pneumoniae monoclonal antibody KPE33 at 0.2, 1, and 5 mg/kg and human IgG1 control antibody at 5 mg/kg were given one hour post bacterial challenge (therapeutic dosing). Mouse survival was monitored daily until up to day 8.
# as §1, with “Additionally, in an” for “In an”, “monoclonal antibodies […] and […]” for “monoclonal antibody KPE33”, “at 0.2” for “at 0.2, 1,”, “and 1” for “and 5”
# KPE33 or KPE33-V-2016 were administered at a dose of 6 mg/kg 1 hour post bacterial infection with a Klebsiella pneumoniae carbapenam resistant strain.
molecule,measurement,setting,value
B1,Kd,O1 LPS,4.46 nM
same,"survival, lethal pneumonia Kp1131115",[1],dose dependently enhanced survival
same,"survival, lethal pneumonia Kp1131115",[1]; listed as KPE33-H32+L2016(EQ1),protect mice from lethal bacterial challenge
B2,Kd,O1 LPS,5.01 nM
same,"survival, lethal pneumonia Kp1131115",[1],dose dependently enhanced survival
